Measured values taken from FireProtDB (doi:10.1093/protein/15.6.455).

B1: Cytochrome c-551, P00099 (parent)
chain: MKPYALLSLLATGTLLAQGAWAEDPEVLFKNKGCVACHAIDTKMVGPAYKDVAAKFAGQAGAEAELAQRIKNGSQGVWGPIPMPPNAVSDDEAQTLAKWVLSQK

Variants of: B1
Conditions: Pseudomonas aeruginosa (strain ATCC 15692 / DSM 22644 / CIP 104116 / JCM 14847 / LMG 12228 / 1C / PRS 101 / PAO1), pH 3.6, Thermal, DSC, sodium acetate 50 mM, reversible: yes, structure 451C, whole UniProt chain shown; for ddG of mutation (higher = less stable) / heat capacity change of unfolding / unfolding enthalpy (calorimetric): 62.6 °C

Row | Variant | ddG of mutation (higher = less stable) | heat capacity change of unfolding | unfolding enthalpy (calorimetric) | Tm | change of melting temperature, mutant - wild type (higher = more stable)
1 | F29A V35M V100I | -10.9 kJ/mol | 0.92 kcal/mol/K | 269 kJ/mol |  | 
2 | V100I | -4.64 kJ/mol | 0.73 kcal/mol/K | 274 kJ/mol |  | 
3 | F56Y E65Y V100I | -9.25 kJ/mol | 0.95 kcal/mol/K | 280 kJ/mol | 73.3 °C | 10.7 °C
4 | F29A V35M | -7.87 kJ/mol | 0.64 kcal/mol/K | 269 kJ/mol | 72.4 °C | 9.8 °C
5 | F29A V35M F56Y E65Y V100I | -19 kJ/mol | 1.12 kcal/mol/K | 297 kJ/mol | 82.4 °C | 19.8 °C
6 | F29A V35M F56Y E65Y | -12.6 kJ/mol | 1 kcal/mol/K | 271 kJ/mol | 77.4 °C | 14.8 °C
7 | F56Y E65Y | -5.27 kJ/mol | 0.74 kcal/mol/K | 274 kJ/mol | 69 °C | 6.4 °C
